Legend:
[1] = target: OsSERL2-MYC-cCFP (Oryza sativa japonica cv. Zhonghua 11 (ZH11)); assay: split reporter (BiFC, NanoBiT); BiFC in rice protoplasts, nVenus and cCFP fusions co-expressed, YFP fluorescence by confocal microscopy (Leica TCS SP5); in one experiment the protoplasts were kept at 28 °C or 4 °C for 24 h and the intensity measured by Image J
[2] = target: MYC-OsSERL2 (overexpression line MYC-OsSERL2-OE1) (Oryza sativa japonica cv. Zhonghua 11 (ZH11)); assay: co-IP; seedlings of COG1-HA-L1/MYC-OsSERL2-OE1 treated at 4 °C for 0, 24 and 48 h; total protein adjusted to equivalent levels of COG1-HA; precipitated with Anti-c-Myc Magnetic Beads, COG1-HA band measured by Image J (0 h = 1.0)

Substance COG1-HA-nVenus (receptor) has a BiFC fluorescence intensity at 4 °C for 24 h, relative to 28 °C (1.0) (relative to 28 °C (1.0)) [1] of 4.1.

Work on “COG1-HA (from the COG1::COG1-HA transgene, line COG1-HA-L1) (receptor)” yielded a relative density of the co-precipitated COG1-HA band after 24 h at 4 °C, against 0 h (1.0) (relative to 0 h (1.0)) [2] of 4.7 and a relative density of the co-precipitated COG1-HA band after 48 h at 4 °C, against 0 h (1.0) (relative to 0 h (1.0)) [2] of 5.8.
